How the values were obtained:
[1] = target: FBG-like domain of human Tenascin-X (human); assay: SPR; Biacore T200; FBG-like domains immobilised on CM5 by amine coupling; mature TGF-β1 injected in single-cycle mode; PBS with 0.05% P-20, 25°C, 30 µl/min; heterogeneous ligand model; apparent constants
[2] = target: FBG-like domain of human Tenascin-W with Arg1220 changed to alanine (FBG-W^RKKA) (human); assay: as above

recombinant human mature TGF-β1 (ligand)
ka1 (heterogeneous ligand model, site 1) [1]: 8080 M⁻¹ s⁻¹
ka2 (heterogeneous ligand model, site 2) [1]: 207000 M⁻¹ s⁻¹
kd1 (heterogeneous ligand model, site 1) [1]: 0.00276 s⁻¹
kd2 (heterogeneous ligand model, site 2) [1]: 0.0845 s⁻¹
KD1 (heterogeneous ligand model, site 1) [2]: 1.89 µM
KD2 (heterogeneous ligand model, site 2) [2]: 6.48 µM
ka1 (heterogeneous ligand model, site 1) [2]: 1040 M⁻¹ s⁻¹
ka2 (heterogeneous ligand model, site 2) [2]: 14300 M⁻¹ s⁻¹
kd1 (heterogeneous ligand model, site 1) [2]: 0.00196 s⁻¹
kd2 (heterogeneous ligand model, site 2) [2]: 0.0926 s⁻¹
